This note sets out measurements from patent publication US20240173424A1, “ANTI-NECTIN-4-ANTIBODY EXATECAN CONJUGATES” (EMERGENCE THERAPEUTICS AG, priority 2021, published 2024).

Common to all, as to assay type: binding
The subject of test [1] is human Nectin-4. The experiment in a line: Flow cytometry of MDA-MB231 transfected with Flag-tagged Nectin-4. The settings on record: MDA-MB231 transfected with Nectin-4, 0.3 ng/ml-5 μg/mL. How it is done:
Detection by flow cytometry. • Flow cytometry analysis of MDA-MB231 transfected with the N-terminal Flag-tagged epitope of Nectin-4 using a dose range (0.3 ng/ml-5 μg/mL) of Ch-15A7.5 or Ch-5A12.2 antibodies Parental MDA-MB231 cells are included as controls. Cells were then stained with phycoerythrin conjugate goat anti human Fc antibody. The normalized mean fluorescence intensity is shown. Inlay: staining of parental MDA-MB231 cells with anti Nectin-1, -2 and -3 mAbs ([…]). Mean fluorescence intensity is represented.
Human breast carcinoma cell line MDA-MB231 (ATCC, Manassas, VA) was cultured in DMEM supplemented with 10% fetal bovine serum, 50 IU/mL penicillin, 50 μg/mL streptomycin and 2 mM glutamine. The cells were transfected with expression vector p3XFLR4.C1 containing a PVRL4 cDNA. Human triple negative breast cancer cell line SUM190PT (BioIVT, Westbury, NY) was cultures in Ham's F12 medium with 5% fetal bovine serum, 1% non-essential amino acids, 1% Hepes, 1% insulin, 1 μg/mL hydrocortisone, 6.8 ng/ml Triiodo L-tyrosine, 100 IU/mL penicillin, 100 μg/mL streptomycin and 2 mM glutamine. Chinese hamster ovary CHO cell line was cultured in DMEM supplemented with 10% fetal bovine serum, 100 IU/mL penicillin, 100 μg/mL streptomycin and 2 mM glutamine. […]
For orientation: A flow cytometer gives signals particle by particle.

In test [2] the target is T1, Nectin-1 extracellular domain (Homo sapiens, UniProt Q15223).
T1 construct: Nectin-1 extracellular domain Fc fusion recombinant protein (Nec1-VCC)
T1 sequence (Q15223 31-355 limits assumed): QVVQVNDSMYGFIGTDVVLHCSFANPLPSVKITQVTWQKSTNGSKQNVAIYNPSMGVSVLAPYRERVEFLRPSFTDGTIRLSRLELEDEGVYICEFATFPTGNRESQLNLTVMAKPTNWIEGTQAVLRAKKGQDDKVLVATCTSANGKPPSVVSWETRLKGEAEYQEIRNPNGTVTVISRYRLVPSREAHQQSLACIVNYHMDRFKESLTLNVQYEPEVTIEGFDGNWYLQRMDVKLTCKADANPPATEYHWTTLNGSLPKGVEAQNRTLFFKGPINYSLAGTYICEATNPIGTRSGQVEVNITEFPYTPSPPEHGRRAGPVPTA
Description: ELISA on coated Nectin-1 extracellular domain Fc fusion protein (Nec1-VCC). How it is done: (§1) Detection by ELISA. • Ninety-six-wells plates were coated, as indicated, with 5 μg/mL Nectin-1 extracellular domain Fc fusion recombinant protein (Nec1-VCC), or Nectin-4 IgV-like domain Fc fusion recombinant protein (Nec4-V), or Nectin-4 extracellular domain Fc fusion recombinant protein (Nec4-VCC) overnight at 4° ° C.
(§2) A sandwich enzyme-linked immunosorbent assay was used to control specificity of Ch-15A7.5 antibody and to perform competition assays between different mAbs. Ninety-six-wells plates were coated with 10 nM of Nectin-4-VCC-Fc, Nectin-1-VCC-Fc (entire extracellular part) or Nectin-4-V-Fc (comprising only the IgV domain) overnight at +4° C. After washes and saturation with PBS 1% BSA, cells were incubated for 2 hours at 25° C. with 10 nM of peroxidase-conjugated Ch-15A7.5 mAb. In the case of competition, binding of 0.5 nM of peroxidase conjugated Ch-15A7.5 mAb was measured in the presence of variable concentration (0.018 nM to 40 nM) of “cold” mAb. One hundred μL of peroxidase substrate was added (One Step ABST, Pierce), and OD was red at 405 nm.
(In an ELISA, binding on a coated surface is turned into a signal by an enzyme label.)

Test [3] concerns human Nectin-4. Description: ELISA on coated Nectin-4 Fc fusion proteins (Nec4-VCC, Nec4-V). The settings on record: ELISA. Here is the method:
as §1
FIG. 3: Characterization of Ch-15A7.5 epitope. Competition assay was performed by ELISA. • Ninety-six-wells plates were coated with 5 μg/mL of Nectin-4 extracellular domain Fc fusion recombinant protein (Nec4-VCC) overnight at 4° C. Binding of peroxidase-conjugated Ch-15A7.5 mAb (5 μg/mL) was measured in presence of increasing concentrations (2.75 ng/ml-6 μg/mL) of Rituximab, Ch-15A7 mAb, Enfortumab (HA22), Ch-N41 mAb and Ch-14A5 mAb.
as §2

Test [4] addresses T2, Nectin-4 expressed by normal differentiated human keratinocytes (NHEK) (Homo sapiens, UniProt Q96NY8).
T2 construct: Cells or cell lines (10,000-50,000) expressing Nectin-4 (naturally or transfected); endogenous in cells; host or cells: NHEK, differentiated with 0.1 mM CaCl2
T2 sequence (Q96NY8 32-510): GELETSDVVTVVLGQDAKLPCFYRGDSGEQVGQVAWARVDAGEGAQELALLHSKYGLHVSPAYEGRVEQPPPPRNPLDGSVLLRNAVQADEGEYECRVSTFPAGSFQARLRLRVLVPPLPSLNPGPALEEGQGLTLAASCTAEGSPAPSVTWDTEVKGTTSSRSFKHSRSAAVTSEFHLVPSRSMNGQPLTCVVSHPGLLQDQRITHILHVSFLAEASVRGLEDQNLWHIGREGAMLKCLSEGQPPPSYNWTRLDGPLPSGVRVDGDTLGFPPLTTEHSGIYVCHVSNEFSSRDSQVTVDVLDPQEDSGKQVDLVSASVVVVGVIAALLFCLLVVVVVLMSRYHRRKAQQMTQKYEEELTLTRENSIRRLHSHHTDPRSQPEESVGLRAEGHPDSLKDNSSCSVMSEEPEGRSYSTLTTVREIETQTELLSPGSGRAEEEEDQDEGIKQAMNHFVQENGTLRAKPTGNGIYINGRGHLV
The experiment in a line: Flow cytometry on normal differentiated human keratinocytes (NHEK). The settings on record: dose range 8 PM-33 nM. Here is the method:
FIG. 15: Differential binding of Ch-15A7.5 and its humanized variants to Nectin-4 expressed by tumor cell line and normal differentiated human keratinocytes. Detection by flow cytometry.
Flow cytometry analysis of TNBC cell line (SUM190, upper panels) and normal differentiated (0.1 mM CaCl2) human keratinocytes (NHEK, lower panels) using a dose range (8 PM-33 nM) of Ch-5A12.2, Ch-15A7.5 and its humanized variants 15A7.5-H1L2, -H1L3, -H2L2, -H2L3, -H3LO, -H3L2, -H3L3. Cells were then stained with phycoerythrin conjugate goat anti human Fc antibody. Normalized mean fluorescence intensities are shown. Non-linear curve fitting (4 parameters) was done with GraphPad Prism 9 software.
Cells or cell lines (10,000-50,000) expressing Nectin-4 (naturally or transfected) were incubated with dose range of the indicated antibodies. After washing, cells were then stained with phycoerythrin-conjugated goat anti human antibody (5 μg/mL) Jackson Immuno Research). After fixation, cells were stained with a viability dye (e780, Invitrogen) before flow cytometry acquisition.

B1: Ch-15A7.5: chimeric antibody of 15A7.5 with Fc-silent human Fc (antibody, V domains shown)
VH: EVKLVESGGGLVQPGGSRKLSCAASGFTFSNYGMAWVRQAPGKGPEWVAFISNLAYGINYADTVTGRFTISRENAKNTLYLEMRSLRSEDTAMYYCARGARATGWFAYWGQGTLVTVSA
VL: DIVMTQSQKFMSTSIGDRVSVTCKASQNVDTHVAWYQEKPGQSPKALIYSASYRYSGVPDRFTGSGSGTDFTLTISNVQSEDLADYFCQQYNSYPLTFGGGTKLEIK
For B1, in the test on human Nectin-4 [1], the “recognition of human Nectin-4” value is “recognize human Nectin-4”. Also, the “recognition of Nectin-1 extracellular domain” value in test [2] is on record as “not the Nectin-1 extracellular domain”. Besides, in the test on human Nectin-4 [3] (Nec4-V coated), the “recognition of Nectin-4 IgV-like domain” value is on record as “recognizes IgV-like domain of human Nectin-4”. Moreover, the “recognition of Nectin-4 extracellular domain” value in the test on human Nectin-4 [3] (Nec4-VCC coated) is on record as “recognizes the Nectin-4 extracellular domain”. In addition, in test [4], the “apparent EC50 towards keratinocytes in comparison to that of Ch-5A12.2” value is “much lower apparent EC50”.
